From the supplement of paper PMC10567573

B1: SLC2A12 (parent)
chain: TRIMIGLTLVFFVQITGQPNILFY

Variants of: B1
Assay: protein stability index of a GFP-peptide fusion (GPS, HEK-293T) (PSI 1-6); higher = more stable
Conditions: c terminus: a fixed tail appended
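Also: lentivirally expressed fusions sorted by FACS into six bins by GFP to DsRed ratio, PSI derived from sequencing read proportions per bin multiplied by bin number.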

Variant	protein stability index
V10Y	2.56
V10R	2.5
V10G	3.27
V10W	2.58
V10D	1.78
V10H	3.39
V10M	3.53
V10N	3.65
V10C	2.69
V10T	3.36
V10K	3.44
V10F	3.06
P19R	3.63
P19F	3.16
P19T	3.21
P19G	2.96
P19V	3.9
P19M	2.83
P19S	2.39
P19Y	2.23
P19I	3.15
P19N	1.72
P19L	3.42
P19Q	2.6

Variant	protein stability index
T1W	3.23
T1S	3.37
T1Q	2.42
T1K	2.57
T1G	3.81
T1M	1.44
T1Y	5.08
T1A	2.48
T1P	2.26
T1I	3.72
T8C	3.82
T8G	2.77
T8N	3.93
T8M	3.52
T8D	2.01
T8L	3.33
T8I	2.72
T8V	3.33
T8Q	2.43
T8H	4.12
T8P	4.51
T8Y	2.64
T8S	2.71
Q18V	4.47

Variant	protein stability index
Q18G	3.24
Q18N	2.47
Q18Y	3.56
Q18A	3.12
Q18W	3.71
Q18S	3.39
Q18E	4.17
Q18K	3.22
Q18P	3.94
Q18C	2.86
Q18D	2.16
Q18H	3.08
L7Y	4.24
L7F	2.41
L7W	2.84
L7E	2.62
L7P	2.96
L7C	2.22
L7D	2.9
L7H	3.31
L7R	2.42
L7Q	1.72
L7V	2.5
L7K	1.8

Variant	protein stability index
L7N	2.78
L7I	2.63
F23C	2.54
F23I	3.73
F23M	2.94
F23P	3.99
F23D	2.29
F23H	2.96
F23Y	3.75
F23S	2.97
F23L	3.52
F23V	2.56
F23T	2.38
F23E	3.67
F23A	3.26
Q14D	2.14
Q14E	2.11
Q14K	3.25
Q14L	3.19
Q14A	3.31
Q14W	4.35
Q14S	3.29
Q14G	3.68
Q14R	2.38

Variant	protein stability index
Q14T	3.67
Q14H	2.02
Q14I	2.88
Q14N	3.37
Q14V	3.44
V13L	2.69
V13G	3.16
V13D	2.46
V13S	2.7
V13N	3.86
V13A	3.24
V13Q	2.33
V13P	3.01
V13Y	3.14
V13R	2.87
V13I	3.48
V13E	2.15
V13M	3.17
V13T	3.18
I15R	2.93
I15H	2
I15T	3.01
I15F	3.46
I15M	2.5

Variant	protein stability index
I15A	1.54
I15C	3.47
I15Q	3.39
I15L	2.74
I15P	3.74
I15Y	3.97
I15G	1.73
M4A	3.65
M4T	2.73
M4G	2.99
M4N	3.52
M4P	2.72
M4D	3.33
M4S	3.75
M4H	2.79
M4C	4.43
M4Y	2.6
M4I	1.92
M4V	4.05
M4L	2.64
M4F	2.29
M4Q	2.88
M4R	3.83
M4W	3.96

Variant	protein stability index
R2K	2.82
R2Q	4
R2W	3.62
R2C	1.74
R2Y	2.27
R2L	2.57
R2M	4.67
R2N	3.48
R2H	2.17
R2S	2.95
R2D	3.39
R2T	2.27
R2I	2.93
R2A	3.31
I21N	2.52
I21V	2.5
I21H	2.49
I21C	2.42
I21Y	2.98
I21W	3.64
I21F	3.31
I21T	3.91
I21R	2.73
